Measurements: patent US20260109758A1 (BIOSION, published 2026)

B1: BSI-502-004 (bispecific antibody, human IgG1, kappa)
heavy: DIQMTQSPSSLSASVGDRVTITCRTSENIYSYLAWYQQKPGKAPKFLVYNAKTLAEGVPSRFSGSGSGTDFTLTISSLQPEDFATYYCQHYYGPPTWTFGQGTKVEIKGGGGSGGGGSGGGGSGGGGSEVQLVESGGGLVQPGGSLRLSCAASGFTFSTYGMSWVRQAPGKGLVWVATINSNGGSTSYPDSVKGRFTISRDNAKNTLYLQMNSLRAEDTAVYYCARFFRFRNAMDYWGQGTLVTVSSGGGGSGGGGSQVQLVQSGAEVKKPGASVKVSCKASGYTFTTYWMHWVRQAPGQGLEWMGVIDPSDSDTTYNQKFKGRVTMTRDTSTSTVYMELSSLRSEDTAVYYCTRSLDGYYDYWGQGTLVTVSSASTKGPSVFPLAPSSKSTSGGTAALGCLVKDYFPEPVTVSWNSGALTSGVHTFPAVLQSSGLYSLSSVVTVPSSSLGTQTYICNVNHKPSNTKVDKKVEPKSCDKTHTCPPCPAPEAQGGPSVFLFPPKPKDTLYITREPEVTCVVVDVSHEDPEVKFNWYVDGVEVHNAKTKPREEQYNSTYRVVSVLTVLHQDWLNGKEYKCQVSNKALPAPIEKTISKAKGQPREPQVYTLPPSRDELTKNQVSLTCLVKGFYPSDIAVEWESNGQPENNYKTTPPVLDSDGSFFLYSKLTVDKSRWQQGNVFSCSVMHEALHNHYTQKSLSLSPG
light: DIQMTQSPSSLSASVGDRVTITCRPTENIYSYLAWYQQKPGKAPKLLIYFARTLAEGVPSRFSGSGSGTDFTLTISSLQPEDFATYYCQHHYGTPWTFGGGTKVEIKRTVAAPSVFIFPPSDEQLKSGTASVVCLLNNFYPREAKVQWKVDNALQSGNSQESVTEQDSKDSTYSLSSTLTLSKADYEKHKVYACEVTHQGLSSPVTKSFNRGEC
notes: hu1C5F12E9-V8 IgG with an anti-IL4R scFv (VL-VH) at the N-terminus of the heavy chain; AQQ and YTE already stand in the entry
B2: BSI-502-001 (bispecific antibody, human IgG1, kappa)
heavy: EVQLVESGGGLVQPGGSLRLSCAASGFTFSTYGMSWVRQAPGKGLVWVATINSNGGSTSYPDSVKGRFTISRDNAKNTLYLQMNSLRAEDTAVYYCARFFRFRNAMDYWGQGTLVTVSSASTKGPSVFPLAPSSKSTSGGTAALGCLVKDYFPEPVTVSWNSGALTSGVHTFPAVLQSSGLYSLSSVVTVPSSSLGTQTYICNVNHKPSNTKVDKKVEPKSCDKTHTCPPCPAPEAQGGPSVFLFPPKPKDTLYITREPEVTCVVVDVSHEDPEVKFNWYVDGVEVHNAKTKPREEQYNSTYRVVSVLTVLHQDWLNGKEYKCQVSNKALPAPIEKTISKAKGQPREPQVYTLPPSRDELTKNQVSLTCLVKGFYPSDIAVEWESNGQPENNYKTTPPVLDSDGSFFLYSKLTVDKSRWQQGNVFSCSVMHEALHNHYTQKSLSLSPGKGGGGSGGGGSQVQLVQSGAEVKKPGASVKVSCKASGYTFTTYWMHWVRQAPGQGLEWMGVIDPSDSDTTYNQKFKGRVTMTRDTSTSTVYMELSSLRSEDTAVYYCTRSLDGYYDYWGQGTLVTVSSGGGGSGGGGSGGGGSGGGGSDIQMTQSPSSLSASVGDRVTITCRPTENIYSYLAWYQQKPGKAPKLLIYFARTLAEGVPSRFSGSGSGTDFTLTISSLQPEDFATYYCQHHYGTPWTFGGGTKVEIK
light: DIQMTQSPSSLSASVGDRVTITCRTSENIYSYLAWYQQKPGKAPKFLVYNAKTLAEGVPSRFSGSGSGTDFTLTISSLQPEDFATYYCQHYYGPPTWTFGQGTKVEIKRTVAAPSVFIFPPSDEQLKSGTASVVCLLNNFYPREAKVQWKVDNALQSGNSQESVTEQDSKDSTYSLSSTLTLSKADYEKHKVYACEVTHQGLSSPVTKSFNRGEC
notes: huC2C1A1A1-V15 IgG with an anti-TSLP scFv (hu1C5F12E9-V8, VH-VL) at the C-terminus of the heavy chain
B3: BSI-502-002 (bispecific antibody, human IgG1, kappa)
heavy: EVQLVESGGGLVQPGGSLRLSCAASGFTFSTYGMSWVRQAPGKGLVWVATINSNGGSTSYPDSVKGRFTISRDNAKNTLYLQMNSLRAEDTAVYYCARFFRFRNAMDYWGQGTLVTVSSASTKGPSVFPLAPSSKSTSGGTAALGCLVKDYFPEPVTVSWNSGALTSGVHTFPAVLQSSGLYSLSSVVTVPSSSLGTQTYICNVNHKPSNTKVDKKVEPKSCDKTHTCPPCPAPEAQGGPSVFLFPPKPKDTLYITREPEVTCVVVDVSHEDPEVKFNWYVDGVEVHNAKTKPREEQYNSTYRVVSVLTVLHQDWLNGKEYKCQVSNKALPAPIEKTISKAKGQPREPQVYTLPPSRDELTKNQVSLTCLVKGFYPSDIAVEWESNGQPENNYKTTPPVLDSDGSFFLYSKLTVDKSRWQQGNVFSCSVMHEALHNHYTQKSLSLSPGKGGGGSGGGGSDIQMTQSPSSLSASVGDRVTITCRPTENIYSYLAWYQQKPGKAPKLLIYFARTLAEGVPSRFSGSGSGTDFTLTISSLQPEDFATYYCQHHYGTPWTFGGGTKVEIKGGGGSGGGGSGGGGSGGGGSQVQLVQSGAEVKKPGASVKVSCKASGYTFTTYWMHWVRQAPGQGLEWMGVIDPSDSDTTYNQKFKGRVTMTRDTSTSTVYMELSSLRSEDTAVYYCTRSLDGYYDYWGQGTLVTVSS
light: B2 light
notes: huC2C1A1A1-V15 IgG with an anti-TSLP scFv (VL-VH) at the C-terminus of the heavy chain; AQQ and YTE already stand in the entry

target: T1, recombinant human TSLP-his (human, UniProt Q969D9 29-159, biotin-labeled in the ELISAs); test: capture ELISA: antibody captured on anti-human IgG Fc F(ab')2, biotin human TSLP-his, SA-HRP
T1 construct: In-house made; not shown: His tag at the C-terminus
Protocol: Briefly, 96-well micro plates were coated with 100 μL 2 μg/mL AffiniPure F(ab′)₂ Fragment Goat Anti-Human IgG, Fey fragment specific (Jackson Immuno Research, Cat #109-006-008) in PBS and incubated overnight at 4° C. Plates were washed 4 times with wash buffer (PBS+0.05% Tween-20, PBST) and then blocked with 200 μL/well blocking buffer (5% w/v non-fatty milk in PBST) for 2 hours at 37° C. […] After the final wash, the plates were incubated with 100 μL/well TMB (Innoreagents). The reaction was stopped 15 minutes later at room temperature with 50 μL/well 1M H₂SO₄, and the absorbance of each well was read on a microplate reader using dual wavelength mode with 450 nm for TMB and 630 nm as the reference wavelength. The OD (450-630) values were plotted against antibody concentration. Data was analyzed using Graphpad Prism and EC₅₀ values were reported.

| EC50 | Binder |
| --- | --- |
| 0.103 nM | B1 |
| 0.169 nM | B2 |
| 0.369 nM | B3 |
